Results: patent US20230416365A1 (Hoffmann-La Roche, published 2023)
Positions count from the first letter of the chain named. Values belong to the binder of their own block, whether it stands above or below them.

Tests used:
[1] = target: T1, human CD28 on CHO cells (parental cell line CHO-k1 ATCC #CCL-61, modified to stably overexpress human CD28) (human, UniProt P10747 19-220); assay: flow cytometry on CHO-hCD28 cells
T1 construct: also called hu CD28; CHO-hCD28

[2] = target: T2, human GPRC5D on CHO-hGPRC5D cells (human, UniProt Q9NZD1 1-345); assay: flow cytometry on CHO huGPRC5D cells, AF488 anti-human IgG Fc secondary
T2 construct: also called CHO huGPRC5D L2

[3] = target: human FAP on 3T3-huFAP cells (clone 19) (human, UniProt Q12884 1-760); assay: flow cytometry on 3T3-huFAP cells, median fluorescence intensity (axis MFI APC)
[4] = target: T2, human GPRC5D on CHO-hGPRC5D cells; assay: flow cytometry on CHO huGPRC5D cells, PE anti-human IgG Fc secondary

EC50 [1]: 4.7 to 5.2 nM | binding result [2]: binds
B1: GPRC5D (5E11)-CD28 (SA_Variant 15) 1+1 format (Molecule 16A) (bispecific antibody, human IgG1, kappa, L234A L235A)
heavy 1: not shown
light 1: QVQLVQSGAEVKKPGASVKVSCKASGYTFTSYYIHWVRQAPGQGLEWIGSIYPGNVQTNYNEKFKDRATLTVDTSISTAYMELSRLRSDDTAVYFCTRSHYGLDWNFDVWGQGTTVTVSSASVAAPSVFIFPPSDEQLKSGTASVVCLLNNFYPREAKVQWKVDNALQSGNSQESVTEQDSKDSTYSLSSTLTLSKADYEKHKVYACEVTHQGLSSPVTKSFNRGEC
heavy 2: EVQLLESGGGLVQPGGSLRLSCAASGFTFSKYAMAWVRQAPGKGLEWVASISTGGVNTYYADSVKGRFTISRDNSKNTLYLQMNSLRAEDTAVYYCATHTGDYFDYWGQGTMVTVSSASTKGPSVFPLAPSSKSTSGGTAALGCLVEDYFPEPVTVSWNSGALTSGVHTFPAVLQSSGLYSLSSVVTVPSSSLGTQTYICNVNHKPSNTKVDEKVEPKSCDKTHTCPPCPAPEAAGGPSVFLFPPKPKDTLMISRTPEVTCVVVDVSHEDPEVKFNWYVDGVEVHNAKTKPREEQYNSTYRVVSVLTVLHQDWLNGKEYKCKVSNKALGAPIEKTISKAKGQPREPQVCTLPPSRDELTKNQVSLSCAVKGFYPSDIAVEWESNGQPENNYKTTPPVLDSDGSFFLVSKLTVDKSRWQQGNVFSCSVMHEALHNHYTQKSLSLSP
light 2: EIVLTQSPGTLSLSPGERATLSCRASQSVSISGINLMNWYQQKPGQQPKLLIYHASILASGIPDRFSGSGSGTDFTLTISRLEPEDFAVYYCQQTRESPLTFGQGTRLEIKRTVAAPSVFIFPPSDRKLKSGTASVVCLLNNFYPREAKVQWKVDNALQSGNSQESVTEQDSKDSTYSLSSTLTLSKADYEKHKVYACEVTHQGLSSPVTKSFNRGEC
notes: huIgG1 PG-LALA CrossFab; also called P1AF1272

EC50 (read off the curve) [3]: ~0.3 nM
B2: FAP-CD28SA 2+1 (P1AD5231) (bispecific antibody, human IgG1, kappa, L234A L235A)
heavy chain CD28(SA) VLCH1 - FAP(4B9) VHCH1 EE - Fc knob PGLALA: not shown
heavy chain FAP(4B9) VHCH1 EE - Fc hole PGLALA: EVQLLESGGGLVQPGGSLRLSCAASGFTFSSYAMSWVRQAPGKGLEWVSAIIGSGASTYYADSVKGRFTISRDNSKNTLYLQMNSLRAEDTAVYYCAKGWFGGFNYWGQGTLVTVSSASTKGPSVFPLAPSSKSTSGGTAALGCLVEDYFPEPVTVSWNSGALTSGVHTFPAVLQSSGLYSLSSVVTVPSSSLGTQTYICNVNHKPSNTKVDEKVEPKSCDKTHTCPPCPAPEAAGGPSVFLFPPKPKDTLMISRTPEVTCVVVDVSHEDPEVKFNWYVDGVEVHNAKTKPREEQYNSTYRVVSVLTVLHQDWLNGKEYKCKVSNKALGAPIEKTISKAKGQPREPQVCTLPPSRDELTKNQVSLSCAVKGFYPSDIAVEWESNGQPENNYKTTPPVLDSDGSFFLVSKLTVDKSRWQQGNVFSCSVMHEALHNHYTQKSLSLSP
CD28(SA) VHCL: B1 light 1 with S50C, Q57N
FAP(4B9) VLCL RK: EIVLTQSPGTLSLSPGERATLSCRASQSVTSSYLAWYQQKPGQAPRLLINVGSRRATGIPDRFSGSGSGTDFTLTISRLEPEDFAVYYCQQGIMLPPTFGQGTKVEIKRTVAAPSVFIFPPSDRKLKSGTASVVCLLNNFYPREAKVQWKVDNALQSGNSQESVTEQDSKDSTYSLSSTLTLSKADYEKHKVYACEVTHQGLSSPVTKSFNRGEC
notes: monovalent for CD28, bivalent for FAP; also called Molecule G; FAP (4B9)-CD28 (SA) 2+1

EC50 [1]: 74.2 nM | binding result [4]: binds
B3: GPRC5D (5E11)-CD28 (SA_Variant 8) 1+1 format (Molecule 16B) (bispecific antibody, human IgG1, kappa, L234A L235A)
heavy 1: not shown
light 1: B1 light 1 with W105F
heavy 2: B1 heavy 2
light 2: B1 light 2
notes: huIgG1 PG-LALA CrossFab; also called P1AF2954
